Laboratory results reported in the supplement of paper PMC10065799, “High-throughput profiling of sequence recognition by tyrosine kinases and SH2 domains using bacterial peptide display” (eLife, 2023).

Target: FGFR3 (UniProt P22607)
Assay: phosphorylation enrichment, bacterial display (enrichment ratio); higher = better substrate or ligand; peptides without Tyr show the background
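Further: 11-residue human phosphosite peptides and single-mutation variants displayed on the E. coli surface, counted by deep sequencing, each peptide's frequency after selection divided by its frequency in the unselected input library; frequency after pTyr selection over input frequency; kinase dosed for 20-30% of maximal phosphorylation in three min.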

Chain of FGFR3 (P22607 whole entry, looked up): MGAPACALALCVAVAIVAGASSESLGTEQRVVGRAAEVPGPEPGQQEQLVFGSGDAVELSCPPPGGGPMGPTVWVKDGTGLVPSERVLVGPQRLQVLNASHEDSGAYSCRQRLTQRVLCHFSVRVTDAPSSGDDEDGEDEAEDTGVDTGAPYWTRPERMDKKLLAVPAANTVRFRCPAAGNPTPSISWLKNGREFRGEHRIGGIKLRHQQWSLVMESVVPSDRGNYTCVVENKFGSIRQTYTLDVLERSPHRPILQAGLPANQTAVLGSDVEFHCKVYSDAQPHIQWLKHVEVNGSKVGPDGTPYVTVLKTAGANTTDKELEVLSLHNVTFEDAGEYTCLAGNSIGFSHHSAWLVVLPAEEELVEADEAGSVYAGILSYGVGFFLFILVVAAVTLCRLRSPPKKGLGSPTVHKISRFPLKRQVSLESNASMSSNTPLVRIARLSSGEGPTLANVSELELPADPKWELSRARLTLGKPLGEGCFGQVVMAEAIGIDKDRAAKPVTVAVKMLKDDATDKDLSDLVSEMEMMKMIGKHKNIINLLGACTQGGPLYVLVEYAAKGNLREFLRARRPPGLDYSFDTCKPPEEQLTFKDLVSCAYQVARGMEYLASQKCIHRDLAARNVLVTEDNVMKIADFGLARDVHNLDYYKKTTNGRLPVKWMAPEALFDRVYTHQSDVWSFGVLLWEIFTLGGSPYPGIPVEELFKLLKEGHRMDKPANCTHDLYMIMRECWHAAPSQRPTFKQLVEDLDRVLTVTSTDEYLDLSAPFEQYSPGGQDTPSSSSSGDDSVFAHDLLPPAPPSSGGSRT

Point of comparison: ASFGPNTRVQS [FOXL2_Y258_Y258N_YF], phosphorylation enrichment 0.442. Against it:
- QSRSPYSSRHS [CDK13_Y415_R410Q] — higher, 0.541
- RLLRGHDQSAF [HLA-C_Y137_Y137H_YF] — higher, 0.47
- IVLEKYKLLPE [DHFR_Y157_D153V] — higher, 0.752
- SSTASYFEAPG [RFX2_Y108] — higher, 3.47
- TLPAFYMENFS [GLB1_Y552_G554E] — higher, 0.855
- KGEDFYFVTCH [FHL1_Y149_C150Y_YF] — higher, 0.946
- ILTFKYLQIPM [KIT_Y547_K550I_YF] — higher, 0.663
- LDMSQYFRLFN [CPT2_Y217] — higher, 1.62
- AVDDKYSRREE [SART1_Y685_I681V] — higher, 0.581
- RHFTGCRIELQ [INSR_Y818_Y818C] — higher, 0.672
- SLALFYRKVFH [RBL1_Y792_YF] — higher, 0.784
- SSNLYYRCLTA [CNGA3_Y169_W171C] — higher, 1.13
- GCRSKYVGLWR [KCNQ1_Y184_G189R] — higher, 0.591
- VFSSDYFSFVL [USP24_Y2138_YF] — higher, 6.6
- MTFMFYRENLR [NLRP14_Y443_V441M_YF] — higher, 0.784
- EFHRLYEEFTR [PIK3R1_Y467_D464H_YF] — higher, 0.579
- PQGVRYTYTID [DCX_Y103_I104T] — higher, 0.784
- GYKVRYATGSI [FGFR1_Y210_W213G] — lower, 0.423
- LEFAKYGSLRG [RET_Y809_V804L_YF] — higher, 0.459
- HRAVEYLLMGI [RAD23A_Y197_T200M] — higher, 1.02
- LSNPAYCLLLA [DDR1_Y513_R514C] — higher, 4.44
- QDGFSYLSRQM [LDLR_Y847_P848L_YF] — higher, 0.995
- YSPYDYQPCLA [TNS1_Y798] — higher, 1.84
- DTQNSYRCATS [TSC1_Y304_G305R] — higher, 0.486
- NSRYTYKLEVK [USH2A_Y3747] — higher, 0.687
- IYGASYVPFAA [RBM47_Y541] — higher, 0.708
- RCKSHYAAFSV [C1QTNF1_Y145] — higher, 0.983
- NKKFHYRELPV [ERN2_Y860_H858Y_YF] — higher, 0.45
- LSSEMYVKSYT [F5_Y2149] — higher, 1.12
- RSAGKYDVYFI [MECP2_Y120_L124F] — higher, 0.484
- CSTIHYNYMCN [TP53_Y234_T230S] — higher, 0.585
- SYTDPYAQPPL [KMT2D_Y2378] — higher, 2.16

Tested on: Fer (mouse)
Assay: as above

Point of comparison: QDGFSYLSRQM [LDLR_Y847_P848L_YF], phosphorylation enrichment 0.636. Against it:
- QSRSPYSSRHS [CDK13_Y415_R410Q] — lower, 0.543
- RLLRGHDQSAF [HLA-C_Y137_Y137H_YF] — lower, 0.357
- IVLEKYKLLPE [DHFR_Y157_D153V] — lower, 0.45
- SSTASYFEAPG [RFX2_Y108] — lower, 0.378
- TLPAFYMENFS [GLB1_Y552_G554E] — higher, 0.64
- KGEDFYFVTCH [FHL1_Y149_C150Y_YF] — lower, 0.588
- ILTFKYLQIPM [KIT_Y547_K550I_YF] — lower, 0.521
- LDMSQYFRLFN [CPT2_Y217] — lower, 0.613
- AVDDKYSRREE [SART1_Y685_I681V] — lower, 0.458
- RHFTGCRIELQ [INSR_Y818_Y818C] — lower, 0.503
- ASFGPNTRVQS [FOXL2_Y258_Y258N_YF] — lower, 0.447
- SLALFYRKVFH [RBL1_Y792_YF] — lower, 0.494
- SSNLYYRCLTA [CNGA3_Y169_W171C] — lower, 0.571
- GCRSKYVGLWR [KCNQ1_Y184_G189R] — lower, 0.42
- VFSSDYFSFVL [USP24_Y2138_YF] — higher, 0.681
- MTFMFYRENLR [NLRP14_Y443_V441M_YF] — higher, 0.705
- EFHRLYEEFTR [PIK3R1_Y467_D464H_YF] — higher, 3.87
- PQGVRYTYTID [DCX_Y103_I104T] — lower, 0.499
- GYKVRYATGSI [FGFR1_Y210_W213G] — lower, 0.34
- LEFAKYGSLRG [RET_Y809_V804L_YF] — lower, 0.373
- HRAVEYLLMGI [RAD23A_Y197_T200M] — lower, 0.351
- LSNPAYCLLLA [DDR1_Y513_R514C] — higher, 0.973
- YSPYDYQPCLA [TNS1_Y798] — higher, 3.46
- DTQNSYRCATS [TSC1_Y304_G305R] — lower, 0.392
- NSRYTYKLEVK [USH2A_Y3747] — lower, 0.505
- IYGASYVPFAA [RBM47_Y541] — higher, 7.91
- RCKSHYAAFSV [C1QTNF1_Y145] — higher, 1.46
- NKKFHYRELPV [ERN2_Y860_H858Y_YF] — lower, 0.374
- LSSEMYVKSYT [F5_Y2149] — higher, 0.771
- RSAGKYDVYFI [MECP2_Y120_L124F] — lower, 0.464
- CSTIHYNYMCN [TP53_Y234_T230S] — lower, 0.555
- SYTDPYAQPPL [KMT2D_Y2378] — lower, 0.489

Target: Fes (UniProt P07332)
Assay: as above

Chain of Fes (P07332 whole entry, looked up): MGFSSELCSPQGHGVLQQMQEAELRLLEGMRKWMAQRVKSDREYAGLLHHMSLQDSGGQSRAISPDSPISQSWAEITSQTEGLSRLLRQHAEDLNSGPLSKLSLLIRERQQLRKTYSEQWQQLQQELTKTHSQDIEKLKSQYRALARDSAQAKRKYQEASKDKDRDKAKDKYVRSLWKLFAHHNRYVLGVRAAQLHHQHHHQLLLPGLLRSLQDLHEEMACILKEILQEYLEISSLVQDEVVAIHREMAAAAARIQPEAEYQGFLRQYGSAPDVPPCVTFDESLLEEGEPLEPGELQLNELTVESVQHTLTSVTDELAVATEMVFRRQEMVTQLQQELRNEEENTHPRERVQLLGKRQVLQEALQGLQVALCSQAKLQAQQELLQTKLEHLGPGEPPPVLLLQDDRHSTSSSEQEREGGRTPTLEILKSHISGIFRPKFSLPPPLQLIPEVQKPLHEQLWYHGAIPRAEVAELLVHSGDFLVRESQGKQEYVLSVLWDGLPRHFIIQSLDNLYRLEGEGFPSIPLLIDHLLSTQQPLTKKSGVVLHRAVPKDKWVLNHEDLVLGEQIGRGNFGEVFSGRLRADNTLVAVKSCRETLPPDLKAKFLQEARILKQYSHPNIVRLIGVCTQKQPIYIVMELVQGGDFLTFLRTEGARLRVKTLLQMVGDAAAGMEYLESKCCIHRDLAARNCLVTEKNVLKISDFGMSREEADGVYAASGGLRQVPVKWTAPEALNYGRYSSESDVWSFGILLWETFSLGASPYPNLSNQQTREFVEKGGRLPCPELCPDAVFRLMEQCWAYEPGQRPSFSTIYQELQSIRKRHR

Point of comparison: HRAVEYLLMGI [RAD23A_Y197_T200M], phosphorylation enrichment 0.802. Against it:
- QSRSPYSSRHS [CDK13_Y415_R410Q] — higher, 0.808
- RLLRGHDQSAF [HLA-C_Y137_Y137H_YF] — lower, 0.738
- IVLEKYKLLPE [DHFR_Y157_D153V] — higher, 1.07
- SSTASYFEAPG [RFX2_Y108] — the same, 0.802
- TLPAFYMENFS [GLB1_Y552_G554E] — higher, 1.62
- KGEDFYFVTCH [FHL1_Y149_C150Y_YF] — higher, 1.57
- ILTFKYLQIPM [KIT_Y547_K550I_YF] — higher, 1.16
- LDMSQYFRLFN [CPT2_Y217] — higher, 1.55
- AVDDKYSRREE [SART1_Y685_I681V] — higher, 0.977
- RHFTGCRIELQ [INSR_Y818_Y818C] — higher, 1.49
- ASFGPNTRVQS [FOXL2_Y258_Y258N_YF] — lower, 0.619
- SLALFYRKVFH [RBL1_Y792_YF] — higher, 1.26
- SSNLYYRCLTA [CNGA3_Y169_W171C] — higher, 1.12
- GCRSKYVGLWR [KCNQ1_Y184_G189R] — lower, 0.519
- VFSSDYFSFVL [USP24_Y2138_YF] — higher, 1.34
- MTFMFYRENLR [NLRP14_Y443_V441M_YF] — higher, 1.28
- EFHRLYEEFTR [PIK3R1_Y467_D464H_YF] — higher, 0.941
- PQGVRYTYTID [DCX_Y103_I104T] — higher, 1.36
- GYKVRYATGSI [FGFR1_Y210_W213G] — lower, 0.625
- LEFAKYGSLRG [RET_Y809_V804L_YF] — lower, 0.644
- LSNPAYCLLLA [DDR1_Y513_R514C] — higher, 1.63
- QDGFSYLSRQM [LDLR_Y847_P848L_YF] — higher, 1.07
- YSPYDYQPCLA [TNS1_Y798] — higher, 1.28
- DTQNSYRCATS [TSC1_Y304_G305R] — lower, 0.726
- NSRYTYKLEVK [USH2A_Y3747] — higher, 1.29
- IYGASYVPFAA [RBM47_Y541] — lower, 0.687
- RCKSHYAAFSV [C1QTNF1_Y145] — higher, 1.35
- NKKFHYRELPV [ERN2_Y860_H858Y_YF] — lower, 0.508
- LSSEMYVKSYT [F5_Y2149] — higher, 1.56
- RSAGKYDVYFI [MECP2_Y120_L124F] — higher, 1.34
- CSTIHYNYMCN [TP53_Y234_T230S] — lower, 0.758
- SYTDPYAQPPL [KMT2D_Y2378] — higher, 0.902

Target: Fyn (UniProt P06241)
Assay: as above

Chain of Fyn (P06241 whole entry, looked up): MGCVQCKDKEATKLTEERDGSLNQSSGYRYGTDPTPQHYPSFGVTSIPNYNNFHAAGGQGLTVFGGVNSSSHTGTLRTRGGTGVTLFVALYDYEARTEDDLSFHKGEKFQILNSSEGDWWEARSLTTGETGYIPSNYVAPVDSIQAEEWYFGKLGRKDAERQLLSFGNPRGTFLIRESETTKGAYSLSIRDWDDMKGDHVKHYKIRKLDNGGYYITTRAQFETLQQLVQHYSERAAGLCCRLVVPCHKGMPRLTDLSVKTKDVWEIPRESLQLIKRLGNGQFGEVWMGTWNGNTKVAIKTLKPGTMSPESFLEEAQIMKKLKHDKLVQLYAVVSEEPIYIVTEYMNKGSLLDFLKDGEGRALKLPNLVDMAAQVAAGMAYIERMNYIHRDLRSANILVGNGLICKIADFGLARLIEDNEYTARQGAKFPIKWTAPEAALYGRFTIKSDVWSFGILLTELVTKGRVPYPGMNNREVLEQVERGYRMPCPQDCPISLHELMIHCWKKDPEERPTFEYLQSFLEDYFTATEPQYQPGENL

Point of comparison: ILTFKYLQIPM [KIT_Y547_K550I_YF], phosphorylation enrichment 0.468. Against it:
- QSRSPYSSRHS [CDK13_Y415_R410Q] — higher, 0.715
- RLLRGHDQSAF [HLA-C_Y137_Y137H_YF] — higher, 0.501
- IVLEKYKLLPE [DHFR_Y157_D153V] — lower, 0.453
- SSTASYFEAPG [RFX2_Y108] — lower, 0.442
- TLPAFYMENFS [GLB1_Y552_G554E] — higher, 0.484
- KGEDFYFVTCH [FHL1_Y149_C150Y_YF] — lower, 0.451
- LDMSQYFRLFN [CPT2_Y217] — higher, 0.959
- AVDDKYSRREE [SART1_Y685_I681V] — higher, 0.567
- RHFTGCRIELQ [INSR_Y818_Y818C] — lower, 0.403
- ASFGPNTRVQS [FOXL2_Y258_Y258N_YF] — lower, 0.466
- SLALFYRKVFH [RBL1_Y792_YF] — higher, 0.502
- SSNLYYRCLTA [CNGA3_Y169_W171C] — higher, 0.493
- GCRSKYVGLWR [KCNQ1_Y184_G189R] — lower, 0.401
- VFSSDYFSFVL [USP24_Y2138_YF] — higher, 2.61
- MTFMFYRENLR [NLRP14_Y443_V441M_YF] — higher, 0.537
- EFHRLYEEFTR [PIK3R1_Y467_D464H_YF] — higher, 7.21
- PQGVRYTYTID [DCX_Y103_I104T] — higher, 0.587
- GYKVRYATGSI [FGFR1_Y210_W213G] — lower, 0.401
- LEFAKYGSLRG [RET_Y809_V804L_YF] — lower, 0.398
- HRAVEYLLMGI [RAD23A_Y197_T200M] — lower, 0.429
- LSNPAYCLLLA [DDR1_Y513_R514C] — higher, 0.605
- QDGFSYLSRQM [LDLR_Y847_P848L_YF] — higher, 0.772
- YSPYDYQPCLA [TNS1_Y798] — higher, 4.27
- DTQNSYRCATS [TSC1_Y304_G305R] — higher, 0.538
- NSRYTYKLEVK [USH2A_Y3747] — lower, 0.437
- IYGASYVPFAA [RBM47_Y541] — higher, 10
- RCKSHYAAFSV [C1QTNF1_Y145] — higher, 1.4
- NKKFHYRELPV [ERN2_Y860_H858Y_YF] — lower, 0.419
- LSSEMYVKSYT [F5_Y2149] — higher, 1.2
- RSAGKYDVYFI [MECP2_Y120_L124F] — higher, 5.26
- CSTIHYNYMCN [TP53_Y234_T230S] — lower, 0.461
- SYTDPYAQPPL [KMT2D_Y2378] — higher, 0.496
